Measured values from article doi:10.1101/2025.09.25.678639, “The DND1–NANOS3 complex shapes the primordial germ cell transcriptome via a heptanucleotide sequence in mRNA 3′ UTRs”.

T1: DND1 1-230 (RRM1-RRM2) (human, UniProt Q8IYX4 1-230)
T1 sequence: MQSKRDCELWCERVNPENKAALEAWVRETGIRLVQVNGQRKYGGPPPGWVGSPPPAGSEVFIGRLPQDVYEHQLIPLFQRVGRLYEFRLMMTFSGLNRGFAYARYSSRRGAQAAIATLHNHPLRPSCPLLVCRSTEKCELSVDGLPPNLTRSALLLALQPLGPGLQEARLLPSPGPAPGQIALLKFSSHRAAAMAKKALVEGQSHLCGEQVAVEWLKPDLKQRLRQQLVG

T2: DND1 13-230 (del1-12) (human, UniProt Q8IYX4 13-230, del1-12)
T2 sequence: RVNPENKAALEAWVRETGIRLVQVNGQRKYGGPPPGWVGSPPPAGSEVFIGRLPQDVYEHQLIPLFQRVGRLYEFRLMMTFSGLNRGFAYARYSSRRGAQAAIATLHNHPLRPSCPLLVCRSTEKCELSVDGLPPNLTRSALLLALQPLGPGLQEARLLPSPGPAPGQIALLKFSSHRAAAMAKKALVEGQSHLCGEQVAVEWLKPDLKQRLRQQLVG


Legend:
DND1 K196A;NANOS3 ZF+C = DND1 K196A;NANOS3 ZF+C (human;human, UniProt Q8IYX4;P60323 1-230;55-173, K196A|); assay: MST; DND1 titrated, 2 uM NANOS3 ZF+C; MST: 20 mM HEPES pH 7.4, 150 mM NaCl, 1 mM DTT, 0.05% Tween20 and 10 ug/mL yeast tRNA after 1:1 mixing, 5 nM Cy5-RNA, partner 2 uM final, 30 min at room temperature, measured at 25 C; settings: protein: recombinant;recombinant; tags: His6-SUMO removed by Ulp1;His6-SUMO removed by Ulp1; N-terminal Ser (residue 54) from BamHI site; copies: 1;1; label: 5'-Cy5
DND1 1-230 (RRM1-RRM2) = target: T1, DND1 1-230 (RRM1-RRM2); assay: MST; MST: 20 mM HEPES pH 7.4, 150 mM NaCl, 1 mM DTT, 0.05% Tween20 and 10 ug/mL yeast tRNA after 1:1 mixing, 5 nM Cy5-RNA, partner 2 uM final, 30 min at room temperature, measured at 25 C; settings: protein: recombinant; tags: His6-SUMO removed by Ulp1; N-terminal Ser (residue 0) from BamHI site; label: 5'-Cy5
[1] = target: DND1 13-230 (del1-12);NANOS3 ZF (ZF1-ZF2) (human;human, UniProt Q8IYX4;P60323 13-230;55-113, del1-12|); assay: MST; DND1 titrated, 2 uM NANOS3 ZF; MST: 20 mM HEPES pH 7.4, 150 mM NaCl, 1 mM DTT, 0.05% Tween20 and 10 ug/mL yeast tRNA after 1:1 mixing, 5 nM Cy5-RNA, partner 2 uM final, 30 min at room temperature, measured at 25 C; settings: protein: recombinant;recombinant; tags: His6-SUMO removed by Ulp1;His6-SUMO removed by Ulp1; N-terminal Ser (residue 54) from BamHI site; copies: 1;1; label: 5'-Cy5
DND1 F93A;NANOS3 ZF+C = DND1 F93A;NANOS3 ZF+C (human;human, UniProt Q8IYX4;P60323 1-230;55-173, F93A|); assay: MST; DND1 titrated, 2 uM NANOS3 ZF+C; MST: 20 mM HEPES pH 7.4, 150 mM NaCl, 1 mM DTT, 0.05% Tween20 and 10 ug/mL yeast tRNA after 1:1 mixing, 5 nM Cy5-RNA, partner 2 uM final, 30 min at room temperature, measured at 25 C; settings: protein: recombinant;recombinant; tags: His6-SUMO removed by Ulp1;His6-SUMO removed by Ulp1; N-terminal Ser (residue 54) from BamHI site; copies: 1;1; label: 5'-Cy5
DND1 H189A;NANOS3 ZF+C = DND1 H189A;NANOS3 ZF+C (human;human, UniProt Q8IYX4;P60323 1-230;55-173, H189A|); assay: as above; settings: protein: recombinant;recombinant; tags: His6-SUMO removed by Ulp1;His6-SUMO removed by Ulp1; N-terminal Ser (residue 54) from BamHI site; copies: 1;1; label: 5'-Cy5
DND1 13-230 (del1-12) = target: T2, DND1 13-230 (del1-12); assay: MST; MST: 20 mM HEPES pH 7.4, 150 mM NaCl, 1 mM DTT, 0.05% Tween20 and 10 ug/mL yeast tRNA after 1:1 mixing, 5 nM Cy5-RNA, partner 2 uM final, 30 min at room temperature, measured at 25 C; settings: protein: recombinant; tags: His6-SUMO removed by Ulp1; label: 5'-Cy5
[2] = target: DND1 1-230 (RRM1-RRM2);NANOS3 ZF+C (human;human, UniProt Q8IYX4;P60323 1-230;55-173, |); assay: MST; DND1 titrated, 2 uM NANOS3 ZF+C; MST: 20 mM HEPES pH 7.4, 150 mM NaCl, 1 mM DTT, 0.05% Tween20 and 10 ug/mL yeast tRNA after 1:1 mixing, 5 nM Cy5-RNA, partner 2 uM final, 30 min at room temperature, measured at 25 C; settings: protein: recombinant;recombinant; tags: His6-SUMO removed by Ulp1; N-terminal Ser (residue 0) from BamHI site;His6-SUMO removed by Ulp1; N-terminal Ser (residue 54) from BamHI site; copies: 1;1; label: 5'-Cy5
Chain of DND1 1-230 (RRM1-RRM2);NANOS3 ZF+C (P60323 55-173, chain 2 of 2, one chain of several): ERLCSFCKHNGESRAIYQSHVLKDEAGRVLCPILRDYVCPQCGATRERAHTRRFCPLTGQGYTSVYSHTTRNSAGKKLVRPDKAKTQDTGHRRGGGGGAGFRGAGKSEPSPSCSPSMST

Chain of DND1 K196A;NANOS3 ZF+C (Q8IYX4 1-230 K196A, chain 1 of 2): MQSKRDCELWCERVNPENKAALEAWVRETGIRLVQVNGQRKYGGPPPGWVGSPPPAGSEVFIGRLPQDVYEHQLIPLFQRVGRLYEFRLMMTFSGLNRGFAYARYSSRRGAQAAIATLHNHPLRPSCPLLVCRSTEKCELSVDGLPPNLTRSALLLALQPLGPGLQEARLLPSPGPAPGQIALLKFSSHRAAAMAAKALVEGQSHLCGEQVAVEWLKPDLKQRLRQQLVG
Chain of DND1 K196A;NANOS3 ZF+C (P60323 55-173, chain 2 of 2): as the sequence (P60323 55-173, chain 2 of 2, one chain of several) above
Chain of DND1 13-230 (del1-12);NANOS3 ZF (ZF1-ZF2) (P60323 55-113, stated change not applied, chain 2 of 2, one chain of several): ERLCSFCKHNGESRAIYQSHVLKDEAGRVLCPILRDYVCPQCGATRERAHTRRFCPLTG
Chain of DND1 H189A;NANOS3 ZF+C (P60323 55-173, stated change not applied, one chain of several): as the sequence (P60323 55-173, chain 2 of 2, one chain of several) above
Chain of DND1 F93A;NANOS3 ZF+C (Q8IYX4 1-230 F93A, chain 1 of 2): as the sequence (Q8IYX4 1-230 K196A, chain 1 of 2) above, with F93A, A196K counted along it
Chain of DND1 F93A;NANOS3 ZF+C (P60323 55-173, chain 2 of 2): as the sequence (P60323 55-173, chain 2 of 2, one chain of several) above

Binder	Kd (DND1 K196A;NANOS3 ZF+C) [µM]	Kd (DND1 1-230 (RRM1-RRM2)) [µM]	Kd [2] [µM]	further results
AUAUUAAUUU (ssRNA) [G3U]	0.13 ± 0.02			
AUAUGACCCAUUU (ssRNA) [spacer]		8.2 ± 3.6		
AUAUAAAUUU (ssRNA) [G3A]	0.17 ± 0.04			
AUAUGAAUUU (ssRNA) [CDK1 N3-DRE (Cy5)]				Kd [1]: 4 ± 2.4 µM; Kd (DND1 F93A;NANOS3 ZF+C): 1.1 ± 0.4 µM; Kd (DND1 H189A;NANOS3 ZF+C): 0.16 ± 0.05 µM; Kd (DND1 13-230 (del1-12)): 3.7 ± 1.4 µM
AUAUGACUCU (ssRNA) [N3mut]		6.4 ± 3.8	2.7 ± 1.1	
AUGCCAAUUU (ssRNA) [D1mut]		15 ± 4.7	15 ± 7.7	
AUGCCACUCU (ssRNA) [D1-N3mut]		11 ± 2.1	12 ± 3	
AUAUCAAUUU (ssRNA) [G3C]	0.31 ± 0.09			
